# Assay: yeast display, Sf9 membrane polyspecificity reagent, FACS + sequencing; frameworks hold sequencing errors
# Method in brief: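 A nanobody's polyreactivity label depends on the gate it was sorted from. Yeast display cells were stained with 10% biotinylated, detergent-solubilized Sf9 membrane reagent for 1 hour at 4 °C, enriched on streptavidin microbeads and sorted by FACS. The low and high (top ~1%) gates were set on anti-HA fluorescence for expression and streptavidin fluorescence for reagent binding.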
row,Sequence,polyreactivity (PSR sort gate)
1,QVQLVESGGGLVQAGGSLRLICAASGNIFTQYGMGWYRQAPGKERELVAAISRRGGSTYYADSVKGRFTISRDNAKNTVYLQMNSLKPEDTAVYYCARRTNRPPWGFEYWGQGTQVTVSS,high polyreactivity
2,QVLLVESGGGLVQAGGSLRLSCAASGFTFGVYAMRWYRQAPGKERELVAAISTTVGSTYYADSVKGRFTISRDNAKNTVYLQMNSLKPEDTAVYYCHYPYDYWGQATQVTVSS,low polyreactivity
3,QVQHVESGGGLVQAGGSLRLTCAASGNTFWWNAMGWYRQAPGKERELVAAISWRGGSTYYADSVKGRFTISRDNAKNTVYLQMKCLKPEDTAVYYCAKRNYHDESVVEEDYWGQGTQVTVSS,low polyreactivity
4,QVQLVESGGGLVQEGGSLRLSCAASGSIFDDYAMGWYRQAPGKEWELVAAITSGGSTYYADSVKGRFTISRDNAKNTVYLQMNSLKPEDTAVYYRATRYHWSSSFAPVGAYGYWGHGTQVTVSS,low polyreactivity
5,QVLLVESGGGLVQAGGSLRLSCAASGRTFYNYSMGWYRQAPGKERELVAAISGGGTTNYADTVKGRFTISRDNAKNTVYLQMNSLKPEDTAVYSCNAARTRWATGYDYWGQGTQVTVSS,low polyreactivity
6,QVELVESGGGLVQAGGSLRLSCAASGCIFTFYAMGWYRTAPGKARELVAAISSSGTSTYYADSVKGRFTISRDNAKNTVYLQMNSLKPEDTAVYYCAAGTAYSRYGYWGQGTQVTVSS,high polyreactivity
7,QVQLVESGVGLVQAGGSLRLSCAASGRIFYRNAMGWYRQAPGKEREFVAAITFRSGGTYYADSVKGRFTISRDNAKNTVYLQMNSLKPEDTAVYYCATRYLGASRYGYWGQGTQVTVSS,high polyreactivity
8,QVQLQESGGGLVQAGGSLRMSCAASGNIFDADIMGWYRQAPGKERELVASITDGRRTNYADSVKGRYTISRDSEKNTVYLQMNSLKPEDTAVYYCAAIAYPVVPTYFDYDSDYFHWGQGTQVTVSS,high polyreactivity
9,QVQLVESGGGLVQAGGSLRLSCAASGRIFVTYAMGWYRQAPGTERELVAAINSSVSSTRYADSVKGRFTMSRDNAKNTVYLQMNSLKPEDTAVYYCAAVYRYVRPIAKDEYWGQGTQVTVSS,low polyreactivity
10,QVQLVESGGGLVQAGGSLRLSCAASGSIFRYYAMGWYRQAPGKERELVASISWSGTSTNYADSVKGRFTISRDNAKNTVYLQMNSLKPEDTAVYYCNKVRWGRYYTRYDYWGQGTQVTVSS,high polyreactivity
11,HVQLVESGGGLVQAGGSLRLSCAASGFIFQYYCMGWYRQATRKERELVAAIDSRGGSTYYADSVKGRFTISRDNAKNTVYLQMNSLNPADTAVYYCAAMGLYQGTLNHFYYWGQGTQVTVSS,low polyreactivity
12,QVQLVESGGGLVQAGGSLRLSCAASGRTCDIYAMGWYRQAPGKERELVAAISSGGSTYYADSVKGRFTISRDNAKNTVYLQMNSLKPEDTAVYYCAVRWYDQVSRRGIGYYWGQGTLVTVSS,low polyreactivity
13,QVQLVESGGGLVQAGGSLRLSCAASGRNFLPNAMGWSRPAPGKERELVAAITSGGGSTYYADSVKGRFTISRDKAKNTVYLQMNSLKPEDTAVYYCAKQPYRGKYYYWGQGTQVTVSS,high polyreactivity
14,QVQLVESGGGLVQAGGSLRLSCAASGFTFHNNVMGWYRQATGKERELVATISKSGGSTYYADSVKGRFTISRDNAKNTVYLQMNSLKPEDTAVYYCARRYRDYDYWGQGTQVTVSS,high polyreactivity
15,QVQLVESGGGLVQAGGSLRLSCAASGSILDGNNMGWSRQAPGKERELVAAISWRGGSTYYADSVKGRFTISRDNAKNTVYLQMNSLKPEDTAVYYCNTYHPYWGSGFDYWGQGTQVTVSS,low polyreactivity
16,QVQLVESGGGLVQAGGSLRLSCDASGFTFYGYAMGWYRQAPGKERELVAAISGNGARTYYADSVKGRFTISRDNAKNTVYLQMNSLKPEDTAVYYCNADPATWWRNKEDYWGQGTQVTVSS,high polyreactivity
17,QVQLVESGGGLVQAGGSLRLSCAASGSTFHWYDMGWYRQAPGKERELVAGINTSGDGTYYADSVKGRFTISRDNAKNTVYLQMNSLKPEDTAVYYCAAEYYTYWGYEDDYWGQGTQVTVSS,low polyreactivity
18,QVQLVESGGGLVQAGVSLRLSCAASGSIFYYYAMGWYRPAPGKERELVAAITRSGGSTYYADSVKGRFTISRDNAKNTVYLQMNSLKPEDTAVYYCAKDAHAYRDLDYWGQGTQVTVSS,low polyreactivity
19,QVQLQESGGGQVQAGGSLRLSCAASGTIFLYAFMAWYRQAPGKEPKLVAAIDVGTTTKYADSVKGRFTISRDNAKNTVYLQMNSLKPEDTAVYYCAAYLCYLDDLGYWGQGTQVTVSS,low polyreactivity
20,QVQLVESGGGLVQAGGSLRLSCAASGSTFGYYAMGWYRQAPGKERELVASITSDGSTNYADSVKGRFTISRDNAKNTVYLQMNSLKPEDSSVYYCAAYVWRYWHEYDYWGQGTQVTVSS,low polyreactivity
21,QVQLVESGGGLVQAGGSLRLSCAASGLIFFWYTMGWYRQAPGKERELVAAISGSGTGTYYADSVKGRFTISRDNAKNTVYLQMNSLIPEDTAVYYCATDYVYRGYLMNYWGQGTQVTVSS,high polyreactivity
22,QVQLVESGGGLVQAGGSLRLSCAASGRIFTYYAKGWYRQAPGKERELVAAISWSGGSTYYADSVKARITISRDNAKKTVYLVMNSLNPEDTAVYYCNAVYPSVYPVSTRYYWGQGTQVTVSS,high polyreactivity

row,Sequence,polyreactivity (PSR sort gate)
1,QVQLVESGGGLVQAGGSLRLSCAASGRTFTAYAMGWYRQAPGKERELVAAITTSGGTTYYADSVKGRFTISRDNAKNTVYLQMNSLKPEDTAVYYCAADVVVSWWLIYDYWGQGTQVTVSS,low polyreactivity
2,QVQIVESGGGLVQAGGSLRLSCAASGSTYDHYTLGWYRQAPGKERELVAAINRIADSTYYADSVKGRFTNSRDNQKNTVYVQMTSLNPEDTAVYYCAARQFVYSSRIILYDYWGHGTQVTVSS,high polyreactivity
3,QVQLVESGGGLVQAGCSLRLSCAASGSTFRWYAMGWYRPAPGKEREFVAAITSSGGSTYYADSVKGRFTISRDNAKNTVYLQMNSLKPEDTAVYYCNRRYQPYSYDYWGQGTQVTVSS,high polyreactivity
4,QGQLVESGGGLVQAGGSLLLSCAASGRIFTGKAMGWSRQAPGKERELGAAIDWSGGSTYYADSVKGRFTISRDNAKNTVYLQMNSLKPEDTAVYYCNATYSNSAVGYLGFDYWGQGTQVTVSS,low polyreactivity
5,QVQLVDSGGGLVQAGGSLRLSCAASGSIFTDNAMGWYIQAPGKERDLVAAITGRGGNTYYADSLKGRFPISRDNAKNTVYLQMNSLKPEDTAVYYCAARIFRTRKPLGYWGQGTQVTVSS,high polyreactivity
6,QVQLVESGGGLVQAGGSLRLSCAASGLTFYGYTMGWSRQAPGKERELVAAISWSGGNTYYADSVKGRFTISRDNEKNTVYLQMNSLKPEDTAVYYCAAEHWTYDWVDYWGQGTQVTVSS,low polyreactivity
7,QVHLVESGGGLVQAGGSLRLSCAASGSTFYYAMGLYRKAPGKERELVASITFSTGSTYYADSVKGRFTISRDNAKNTVLLQMNSLKPEDTAVYYCATGVDTFSLSVEHDSWGQGTQVTVSS,low polyreactivity
8,QVQLVESGGGLVQAGGSLRLSCAASGSIFYISAMGWYRQAPGKERELVAAISWIDDTTYYADSVKGRFTISRDNAKNTVYLQMNSLKPEDTAVYYCAAELENVYAGGQMDYWGQGTQVTVSS,high polyreactivity
9,QVQLVESCGGLVEAGGSLRLSCAASGSILYSNAMGWYRQGPGKESELVAAIRSGGSTSYADSVKGRFTISRDNANNTVYLQMNSLKPDDTAVYYSAADPSSGVTYGMYYWGQGSQVTVSS,low polyreactivity
10,QVQLVESGGGLVQAGGSLRLSCPASGLTFAYYTMGWYRQSPGKERELVADISRSGGSTYYADSVKGRFTISRDNAKNTVYLQMNSLKPEDSAVYYCAARANVYTKKRDYWGQGTQVTVSW,high polyreactivity
11,QVQLVESGGGLVQAGGSLRLSCAASGFTFSYYAMGWYRQAPGKERELVAAITFTGGSTYYADSVKGRFTISRDNAKNTVYLQMNSLKPEDTAVYYCAADWYYGDEYEYWGQGTQVTVSS,high polyreactivity
12,QVQLVESGGGLVQAGGSLRLSCAASGIIFRLNTMGWYRQAPGKERELVAAITSGGSTQYADSVKGRFTISRDNAKNTVYLQMNSLKPEDSAVYYCAAGHRANYWAWHFYYPGDFWGQGTQVTVSS,low polyreactivity
13,QVQLVESGGGLVQAGGSLRLSCAASGRIVCYYDMGWSRQAHGKERELVATITFGGGSTYYADSVKGRFTISRDNAKNTVYLQMNSLKPEDTAVYYCAADSGYLGIYGDEYSSGQGTQVTVSS,low polyreactivity
14,QVQLVESGGGLVHAGGSLRLSCAASGSILKYYAMGWYRQAPGKERELVAAITSRGGSTYYADSVKGRFTISRDNAKNTVYLQMNSLKPEDTAVYYCNRVYLGYFRYDYWGQGTQVTVSS,high polyreactivity
15,QVQLVESGGGLDQAGVSLRLSCAASGRTFGGYAMGWYRQAPGKERELVASITSGGSTYYADSVKGRFTISRDNAKNTVYLQMNSLKPEDTAVYYCAADTYFETSTRAIPTNDYWGQGTQVTVSS,low polyreactivity
16,QVQLVESGGGLVQAGGSLRLSCAASGSIFGLYAMGWYRQAPGKERELVAAISASGGSTYYADSVKGRFTISRDNAKNTVYLQMNSLKPEDTAVYYCAKKQRYYGRMDYWGQGTQVTVSS,high polyreactivity
17,QVQLVESGGGLVQAGGSLRLSCAASGYTFNYYAMGWYRQAPGKERELVAAIRSTGSTNYADSVKGRFTISRDNAKNTVYLQMKSLKPEDTAVYYCAAKIRKDYSIQGYDYWGQGSQVTVSS,high polyreactivity
18,QVQLVESGGGLVQAGGSLRLRCAASGYTLGPYAMGWYRQAPGKERELVAAISWGGGRTYYADSVKGRFTISRDNAKNTVYLQMNSLKPEDTAVYYCAAKWSHVRDGPKYDYWGQGTQVTVSS,low polyreactivity
19,QVQLVESGGGLVQAGGSLRLSCAASGSIFIRNAMGWYRQAPGKERELVAAISWGGARTYYADSVKWRFTISRDNAKNTVYLQMNSLKPEDTAVYYCNALNVRGNKFDYWGQGTQVSVSS,high polyreactivity
20,QVQLVESGVGLVQAGGSLRLRCAASGSILGGNAMGWYRQAPGKERELVAAITFSGGGTYYADSVKGRFTISRDNAKNTVYLQMNSRKPEDTAVYYCNAFAPDYYHVYPAEDYWGQGTQVTVSS,low polyreactivity
21,QVQLVESGGGLVQAGGSLRLSCAASGFTFRSNAMGWYRQAPGKARELVAAISYSGDSTYYADSVKGRFTISRDTAKNTVYLQMNSLKPEDTAVYYCAADGYDQWGRVGVYLIWTSYDYWGQGTQVTVSS,high polyreactivity

# — the nanobody polyreactivity screen of Harvey et al. (2022)
